Results on two molecules are retold here after patent publication CN114891108A (SHANGHAI XUNLU BIO TECH CO LTD, dated 2022).

Assay [1] has as its target T1, BCMA on cells (293CT-BCMA, MM.1S) (UniProt Q02223 1-184, limits assumed).
T1 construct: whole, on cells; also called 细胞膜表面天然状态的BCMA
T1 sequence (looked up): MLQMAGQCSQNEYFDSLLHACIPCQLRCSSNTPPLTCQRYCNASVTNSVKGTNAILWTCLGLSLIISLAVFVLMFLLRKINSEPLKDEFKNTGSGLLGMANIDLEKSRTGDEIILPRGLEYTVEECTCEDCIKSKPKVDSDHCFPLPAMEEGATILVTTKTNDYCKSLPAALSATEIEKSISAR
Nature of the assay: phage flow cytometry on 293CT-BCMA cells.

Assay [2] concerns the target T2, Biotinylated Human BCMA/TNFRSF17 Protein, His,Avitag (human, UniProt Q02223 1-54, biotinylated (Avitag)).
T2 construct: Bought recombinant protein; also called Human BCMA-his-Bio; Human-BCMA-his-Bio
T2 sequence (looked up): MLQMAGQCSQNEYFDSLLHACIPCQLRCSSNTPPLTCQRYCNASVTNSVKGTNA
Nature of the assay: phage ELISA.

Assay [3] concerns the target T3, Mouse BCMA/TNFRSF17 Protein, His Tag (mouse, UniProt O88472 1-49).
T3 construct: Bought recombinant protein; also called Mouse-BCMA-his; 鼠的BCMA蛋白
T3 chain (looked up): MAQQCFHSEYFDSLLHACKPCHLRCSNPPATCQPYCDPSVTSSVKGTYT
Description: phage ELISA.

Assay [4] addresses T1, BCMA on cells (293CT-BCMA, MM.1S). Nature of the assay: flow cytometry titration on 293CT-BCMA and MM.1S cells.

B1: Clone 41 (scFv)
scFv: QSVLTQPPSVSGAPGQTVTISCTGSSSNIGAGYIVNWYQQLPGTAPKLLIYFTGNRPSGVPGRFSGSRSGTSASLAITRLQAEDEADYYCQSFDRSLGGYVFGTATKVTVLGSRGGGGSGGGGSGGGGSLEMAQLQLQESGPGLVKPSETLSLTCTVSGGSISSSSYYWGWIRQPPGKGLEWIGSISYSGSTYYNPSLKSRVTISVDTSKNQFSLKLSSVTAADTAVYYCARDRGDTILDVWGQGTMVTVSS
notes: The fusion to the phage coat protein is not described; also called 噬菌体单克隆Clone 41; Clone 41单链抗体
For B1, the binding result in assay [1] is on record as “binds”; in assay [2], “binds”; in assay [3], “no binding”.

B2: mAb 41 (Fc fusion)
chain: B1 scFv
notes: also called Clone 41 IgG; 抗BCMA IgG (Clone 41); not shown: Human IgG4 Fc
In the case of B2, in assay [4], the binding result is “binds”.
